Two proteins from publication PMC9774334 can be followed below.

Substrate in data set [1]: O=[N+]([O-])c1ccc(O[C@@H]2O[C@@H](CO)[C@H](O)[C@@H](O)[C@@H]2O)cc1
The experiment in a line: purified protein. Particulars: McIlvaine buffer pH 5.5, 35 °C.

Substrate in data set [2]: C[C@@H]1O[C@@H](Oc2ccc([N+](=O)[O-])cc2)[C@@H](O)[C@H](O)[C@@H]1O
Nature of the data set: purified protein. Particulars: McIlvaine buffer pH 5.5, 35 °C.

B1: ClAgl29A (Cecembia lonarensis LW9) (protein)
chain: QVQYNPEKPARPEDHKPFFYKYNTRQLYEKFSDDLMQRAANDRKEIEKINQLGKYKPKKQSLDEHEVPEWFRDAKLGIFLDWGPWSVPGYAPPGSEGDTGGSYPDWYEFLMDFTYKAYHDSIWGEDFRRDDFLPLLHGNNFDSEEYAELAVQAGAKYMVPFARHHAGWTMWESKYTFRNAVEMGPKRDILKELVEASRKRDLKFGFYFSIAEWEYPVITKERVSQWDPYEDMAIFHDGMGLIPRPVPLASYFPARHDRMISGKIPVKDYFGDYMMPLFKEGVDLFDPDLVWYDGGWGTPANSSRVPELSAYFYNQAEGRKEVVINNRAGAYLDDSNLLKFNEVLKSGEHDKLLELYMKAEQIGDYLTPEYSIGNVDINEPWEVCRSISPAFGFNWTDNEENSLSSKELVKMFVGIVANNGNLLLVINPDGSGKLSNVQKDRLLDLGQWLKVNGEGIYSTRPWEIQESEGNFFTKSKNGEFIYIHILDKEKTTIEVPNLNPKNKGAISILGSKEKVLWENSGPITRITIPESFKDERNWPNKYGFTLKVAVK
As a reminder, the Km is the substrate concentration at which the rate is half of its maximum. The kcat is the number of substrate molecules converted per active site and unit of time at saturation. In general, kcat/Km refers to the second-order rate constant that governs catalysis at low substrate concentration. Take B1: in data set [1], the Km is 2010 ± 260 µM, the kcat turned out to be 2 ± 0.11 s⁻¹ and the kcat/Km was found to be 1000 ± 80 M⁻¹ s⁻¹. Further, in data set [2], the Km is 279 ± 5 µM, the kcat was 0.0658 ± 0.0008 s⁻¹ and the kcat/Km is 236 ± 5 M⁻¹ s⁻¹.

B2: ClAgl29B (Cecembia lonarensis LW9) (protein)
chain: QENKEKDRTPSSKHLTDNILQPKRSSDFMAFKYEYSTVDLYREFSESIMDKARSEVEILESVNRQGRYKPNVESLKLHEVPEWFEDAKLGIFLDWGPWSVPGYAPLKGAEASTGGSYPDWYEFLMDNLYKEYHDEVWGADFRRDDFLPLLTGENFNSEEYMLLAVNSGAKYFVPFTKHHAGWTMWESEFTKRNAVEMGPGRDIYKELIEAGKKYDMKMGFYFSVSEWEYPVIVDQNLSQWDPVKNLAIFQDALGQIPRATPLASYFPALHDRMISGKIPVKDYFADYMIPSFKEAVDKYDPDLVWYDGGWGSPVSISRTMETSAYFYNQAEGKKDVVINNRAGSSLSEDDLIKVRDLMDSGKRDEAMKIYLSGQQLGDYGTPEFTIGDVDIQSKWEVCRSISPAFGYNWQDDEASSLSGEELIKLFVDIVANNGNLLLVISPDGSGKLPDIQKDRLLELGDWMKVNAESIHNTRPWKVQKENDKFFTKSKDGKSLFVHCTNWPGENLIINTPIEEGIKGIKLLGSDINLQFTKASNGNLEIPIPKDFQNNPSLISKYVWTFKIDLN
Take B2: in data set [1], the Km was 1790 ± 180 µM, the kcat came to 7.76 ± 0.41 s⁻¹ and the kcat/Km was 4340 ± 220 M⁻¹ s⁻¹. In data set [2], the Km was determined as 240 ± 11 µM, the turnover number (kcat) is 0.0844 ± 0.0019 s⁻¹ and the kcat/Km was 352 ± 7 M⁻¹ s⁻¹.
